Blank lines part the entries; values can stand above or below the binder they belong to.
What was measured:
Assay in all cases: two-hybrid library CCNG1;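 note: natural log of median RNA to DNA barcode read ratio; higher means stronger binding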
4H4038-bH = biological target: T1, 4H4038-bH
T1 chain: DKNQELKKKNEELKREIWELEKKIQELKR

4H1899-bA = biological target: T2, 4H1899-bA
T2 chain: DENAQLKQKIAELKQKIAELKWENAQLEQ

4H1985-bA = biological target: T3, 4H1985-bA
T3 chain: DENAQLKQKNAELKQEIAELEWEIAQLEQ

4H2586-bN = biological target: T4, 4H2586-bN
T4 chain: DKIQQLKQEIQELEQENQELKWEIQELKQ

4H3162-bA = biological target: T5, 4H3162-bA
T5 chain: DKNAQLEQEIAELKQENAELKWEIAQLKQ

4H3175-bA = biological target: T6, 4H3175-bA
T6 chain: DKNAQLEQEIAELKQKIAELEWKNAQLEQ

4H3277-bA = biological target: T7, 4H3277-bA
T7 chain: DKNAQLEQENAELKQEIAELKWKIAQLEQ

4H3298-bA = biological target: T8, 4H3298-bA
T8 chain: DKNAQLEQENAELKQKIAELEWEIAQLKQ

4H3462-bA = biological target: T9, 4H3462-bA
T9 chain: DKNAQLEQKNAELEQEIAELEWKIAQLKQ

4H3497-bA = biological target: T10, 4H3497-bA
T10 chain: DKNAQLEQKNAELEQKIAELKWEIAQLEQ

4H3613-bA = biological target: T11, 4H3613-bA
T11 chain: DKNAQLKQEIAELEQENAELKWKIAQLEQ

4H3628-bA = biological target: T12, 4H3628-bA
T12 chain: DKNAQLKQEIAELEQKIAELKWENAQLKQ

4H3817-bA = biological target: T13, 4H3817-bA
T13 chain: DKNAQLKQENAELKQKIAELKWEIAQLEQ

4H3858-bA = biological target: T14, 4H3858-bA
T14 chain: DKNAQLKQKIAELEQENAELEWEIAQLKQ

4H3926-bA = biological target: T15, 4H3926-bA
T15 chain: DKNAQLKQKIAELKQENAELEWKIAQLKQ

4H3974-bA = biological target: T16, 4H3974-bA
T16 chain: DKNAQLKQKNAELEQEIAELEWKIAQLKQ

4H570-bA = biological target: T17, 4H570-bA
T17 chain: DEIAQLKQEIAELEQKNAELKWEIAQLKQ

4H591-bA = biological target: T18, 4H591-bA
T18 chain: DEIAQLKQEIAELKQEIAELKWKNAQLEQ

4H626-bA = biological target: T19, 4H626-bA
T19 chain: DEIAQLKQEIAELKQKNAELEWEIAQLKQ

4H850-bA = biological target: T20, 4H850-bA
T20 chain: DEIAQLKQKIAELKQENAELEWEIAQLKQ

4H906-bA = biological target: T21, 4H906-bA
T21 chain: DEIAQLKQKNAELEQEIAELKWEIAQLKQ

4H3858-bN = biological target: T22, 4H3858-bN
T22 chain: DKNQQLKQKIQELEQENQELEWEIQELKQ

4H3974-bN = biological target: T23, 4H3974-bN
T23 chain: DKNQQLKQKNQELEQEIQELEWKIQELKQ

4H570-bN = biological target: T24, 4H570-bN
T24 chain: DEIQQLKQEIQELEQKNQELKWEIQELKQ

4H850-bN = biological target: T25, 4H850-bN
T25 chain: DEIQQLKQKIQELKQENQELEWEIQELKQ

O15 = biological target: T26, O15
T26 chain: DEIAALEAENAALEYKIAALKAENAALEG

P4A = biological target: T27, P4A
T27 chain: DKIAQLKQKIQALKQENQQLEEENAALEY

P5A = biological target: T28, P5A
T28 chain: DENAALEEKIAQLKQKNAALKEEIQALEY

P6A = biological target: T29, P6A
T29 chain: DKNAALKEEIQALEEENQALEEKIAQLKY

P7A = biological target: T30, P7A
T30 chain: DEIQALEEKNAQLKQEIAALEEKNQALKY

P8A = biological target: T31, P8A
T31 chain: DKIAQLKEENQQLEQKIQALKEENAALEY

P9A = biological target: T32, P9A
T32 chain: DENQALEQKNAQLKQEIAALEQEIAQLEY

4H363-bN = biological target: T33, 4H363-bN
T33 chain: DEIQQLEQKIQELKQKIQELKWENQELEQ

4H3907-bN = biological target: T34, 4H3907-bN
T34 chain: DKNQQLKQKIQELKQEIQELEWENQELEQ

4H3961-bN = biological target: T35, 4H3961-bN
T35 chain: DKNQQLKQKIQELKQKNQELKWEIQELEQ

4H470-bN = biological target: T36, 4H470-bN
T36 chain: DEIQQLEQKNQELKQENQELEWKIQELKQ

P5mSN = biological target: T37, P5mSN
T37 chain: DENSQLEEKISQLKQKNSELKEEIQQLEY

P6mSN = biological target: T38, P6mSN
T38 chain: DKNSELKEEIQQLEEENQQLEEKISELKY

P7mSN = biological target: T39, P7mSN
T39 chain: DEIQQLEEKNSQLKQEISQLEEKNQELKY

P8mSN = biological target: T40, P8mSN
T40 chain: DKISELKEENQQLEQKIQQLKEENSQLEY

4H3907-bH = biological target: T41, 4H3907-bH
T41 chain: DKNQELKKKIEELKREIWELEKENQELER

4H3961-bH = biological target: T42, 4H3961-bH
T42 chain: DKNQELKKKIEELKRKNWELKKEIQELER

4H470-bH = biological target: T43, 4H470-bH
T43 chain: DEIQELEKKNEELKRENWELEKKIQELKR

O16-bS = biological target: T44, O16-bS
T44 chain: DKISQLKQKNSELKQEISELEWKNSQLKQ

O2-bS = biological target: T45, O2-bS
T45 chain: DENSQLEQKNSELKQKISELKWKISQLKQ

O3-bS = biological target: T46, O3-bS
T46 chain: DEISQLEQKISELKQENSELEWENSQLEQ

O4-bS = biological target: T47, O4-bS
T47 chain: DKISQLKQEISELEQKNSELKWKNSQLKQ

O5-bS = biological target: T48, O5-bS
T48 chain: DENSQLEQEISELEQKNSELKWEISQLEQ

O6-bS = biological target: T49, O6-bS
T49 chain: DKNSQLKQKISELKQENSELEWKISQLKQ

O7-bS = biological target: T50, O7-bS
T50 chain: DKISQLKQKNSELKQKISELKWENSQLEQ

O8-bS = biological target: T51, O8-bS
T51 chain: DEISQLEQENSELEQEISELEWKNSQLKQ

4H3129-bA = biological target: T52, 4H3129-bA
T52 chain: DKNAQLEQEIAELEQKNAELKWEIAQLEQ

4H3172-bA = biological target: T53, 4H3172-bA
T53 chain: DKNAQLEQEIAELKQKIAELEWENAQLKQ

4H3414-bA = biological target: T54, 4H3414-bA
T54 chain: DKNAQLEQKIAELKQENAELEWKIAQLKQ

4H3631-bA = biological target: T55, 4H3631-bA
T55 chain: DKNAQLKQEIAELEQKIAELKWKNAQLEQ

4H3638-bA = biological target: T56, 4H3638-bA
T56 chain: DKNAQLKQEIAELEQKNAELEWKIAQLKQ

4H570-bH = biological target: T57, 4H570-bH
T57 chain: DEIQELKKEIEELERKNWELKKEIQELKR

4H584-bA = biological target: T58, 4H584-bA
T58 chain: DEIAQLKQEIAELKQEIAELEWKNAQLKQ

4H619-bA = biological target: T59, 4H619-bA
T59 chain: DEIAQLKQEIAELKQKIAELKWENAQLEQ

4H953-bA = biological target: T60, 4H953-bA
T60 chain: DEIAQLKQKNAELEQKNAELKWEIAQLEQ

O8-bN = biological target: T61, O8-bN
T61 chain: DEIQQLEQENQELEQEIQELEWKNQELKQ

B2: 4H1899-bA (peptide)
chain: DENAQLKQKIAELKQKIAELKWENAQLEQ
interaction score (4H1899-bA): -0.612
interaction score (4H1985-bA): 0.619
interaction score (4H2586-bN): -1.99
interaction score (4H3162-bA): -1.28
interaction score (4H3175-bA): -1.03
interaction score (4H3277-bA): -1.41
interaction score (4H3298-bA): -0.142
interaction score (4H3462-bA): -0.31
interaction score (4H3497-bA): -0.482
interaction score (4H3613-bA): -1.23
interaction score (4H3628-bA): 0.582
interaction score (4H3817-bA): -0.216
interaction score (4H3858-bA): -0.565
interaction score (4H3926-bA): -1.03
interaction score (4H3974-bA): -0.528
interaction score (4H570-bA): 0.517
interaction score (4H591-bA): -1.45
interaction score (4H626-bA): -1.38
interaction score (4H850-bA): -0.973
interaction score (4H906-bA): -0.765

B3: 4H3858-bN (peptide)
chain: DKNQQLKQKIQELEQENQELEWEIQELKQ
interaction score (4H3858-bN): -0.115
interaction score (4H3974-bN): -1.21
interaction score (4H570-bN): 0.143
interaction score (4H850-bN): -1.15
interaction score (O15): -1.67

B4: P4A (peptide)
chain: DKIAQLKQKIQALKQENQQLEEENAALEY
interaction score (P4A): -2.18
interaction score (P5A): -2.12
interaction score (P6A): -1.35
interaction score (P7A): -2.13
interaction score (P8A): -1.42
interaction score (P9A): -1.08

B5: 4H363-bN (peptide)
chain: DEIQQLEQKIQELKQKIQELKWENQELEQ
interaction score (4H363-bN): 0.903
interaction score (4H3907-bN): 0.321
interaction score (4H3961-bN): -0.162
interaction score (4H470-bN): -0.702

B9: 4H1985-bA (peptide)
chain: DENAQLKQKNAELKQEIAELEWEIAQLEQ
interaction score (4H1985-bA): -0.898
interaction score (4H3129-bA): -1.14
interaction score (4H3162-bA): -1.66
interaction score (4H3172-bA): -0.781
interaction score (4H3175-bA): -1.53
interaction score (4H3277-bA): -0.983
interaction score (4H3298-bA): -0.906
interaction score (4H3414-bA): -1.09
interaction score (4H3462-bA): -0.708
interaction score (4H3497-bA): -1.03
interaction score (4H3613-bA): -1.14
interaction score (4H3628-bA): -1.35
interaction score (4H3631-bA): -1.21
interaction score (4H3638-bA): -0.944
interaction score (4H3817-bA): -0.287
interaction score (4H3858-bA): -1.31
interaction score (4H3926-bA): -1.07
interaction score (4H3974-bA): -0.265
interaction score (4H570-bA): -1.97
interaction score (4H570-bH): -0.714
interaction score (4H584-bA): -1.42
interaction score (4H591-bA): -1.46
interaction score (4H619-bA): -0.916
interaction score (4H626-bA): -1.19
interaction score (4H850-bA): -1.45
interaction score (4H906-bA): -1.08
interaction score (4H953-bA): -1.8
interaction score (O8-bN): -2.01

Second part, the binder after the results:

interaction score (4H4038-bH): 0.656
B1: 4H4038-bH (peptide)
chain: DKNQELKKKNEELKREIWELEKKIQELKR

interaction score (P5mSN): -1.4
interaction score (P6mSN): 0.0393
interaction score (P7mSN): -0.763
interaction score (P8mSN): -0.632
B6: P5mSN (peptide)
chain: DENSQLEEKISQLKQKNSELKEEIQQLEY

interaction score (4H3907-bH): 0.462
interaction score (4H3961-bH): -0.402
interaction score (4H4038-bH): -0.272
interaction score (4H470-bH): -0.458
B7: 4H3907-bH (peptide)
chain: DKNQELKKKIEELKREIWELEKENQELER

interaction score (O16-bS): -1.23
interaction score (O2-bS): -0.368
interaction score (O3-bS): -1.15
interaction score (O4-bS): -0.194
interaction score (O5-bS): -3.22
interaction score (O6-bS): -0.0299
interaction score (O7-bS): -0.709
interaction score (O8-bS): -1.97
B8: O16-bS (peptide)
chain: DKISQLKQKNSELKQEISELEWKNSQLKQ
